# Results reported in article PMC6212565, “Human antibodies targeting Zika virus NS1 provide protection against disease in a mouse model” (Nature Communications, 2018).
# B1: AA12 LALAPG (antibody, V domains shown)
# VH: EVQLVESGGGLIQPGGSLRLSCAASGFTVSSNYMSWVRQAPGKGLEWVSVIYSGGSTYYADSVKGRFTISRDNSKNTLYLQMNSLRAEDTAVYYCARDRRGFDYWGQGTMVTVSS
# VL: DIQMTQSPLSLSASVGDRVTITCRTSQSISSYLNWYQQKPGKAPKLLIYAASSLQSGVPSRFSGSGSGTDFTLTISSLQPEDFATYYCQQTYSTPLTFGGGTKVEIK
# notes: also called mutated form of AA12; mutant AA12 mAb
# Biological target: T1, recombinant NS1 protein from Zika virus MR766 (Zika virus MR766 (Rhesus/1947/Uganda))
# T1 construct: also called MR766 NS1; NS1 from MR766; source: Expi293 cells transfected with pCAGGS-MR766-NS1, purified from the supernatant (Ni-NTA)
# Experiment: ELISA; plates coated with recombinant ZIKV NS1 at 2 μg per mL in pH 9.41 carbonate buffer overnight at 4 °C; mAbs from 10 μg per mL, serially diluted 3-fold, 2 h at room temperature; detected with HRP-conjugated goat anti-human IgG
# Settings: both partners purified
binder,measurement,value
B1,binding result,binds
